Here are results for nine substances from patent US12295987B2, “Method of using a GIP/GLP1 co-agonist for diabetes” (Eli Lilly and Company, priority 2018, dated 2025).

In the assay the target is T1, human gastric inhibitory peptide receptor (hGIPR) (Homo sapiens, UniProt P48546).
T1 construct: expressed in transfected cells; host or cells: HEK293
T1 sequence (P48546 22-466): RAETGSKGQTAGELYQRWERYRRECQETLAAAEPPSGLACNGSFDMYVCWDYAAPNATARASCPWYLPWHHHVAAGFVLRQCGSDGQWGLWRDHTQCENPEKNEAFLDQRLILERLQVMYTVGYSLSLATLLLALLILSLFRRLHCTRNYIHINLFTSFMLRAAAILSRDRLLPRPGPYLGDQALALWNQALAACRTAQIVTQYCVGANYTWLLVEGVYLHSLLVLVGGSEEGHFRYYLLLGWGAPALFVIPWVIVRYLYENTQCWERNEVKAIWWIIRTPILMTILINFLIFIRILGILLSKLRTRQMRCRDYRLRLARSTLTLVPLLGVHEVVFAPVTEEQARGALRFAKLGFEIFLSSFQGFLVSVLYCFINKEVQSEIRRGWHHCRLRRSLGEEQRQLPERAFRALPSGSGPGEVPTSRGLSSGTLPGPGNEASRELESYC
The assay is described as follows: cAMP pharmacological functional assay in presence of 0.1% casein, hGIPR. It is filed as cell-based. The conditions noted are these: ratio of hGIPR to hGLP1R cAMP EC50 ratios.
Turning to “Y-Aib-EGT-αMeF(2F)-TSDYSI-αMeL-LDEK((2-[2-(2-Amino-ethoxy)-ethoxy]-acetyl)2-(γGlu)-CO—(CH2)16—CO2H)AQ-Aib-EFI-(D-Glu)-YLIEGG-NH2 (YXEGTXTSDYSIXLDEKAQXEFIXYLIEGG; Aib, αMe, D-Glu, C18 diacid lipidation, C-amide; (2)..(2) Xaa at position 2 is Aib; (6)..(6) Xaa at position 6 is alpha-methyl-Phe(2F); (13)..(13) Xaa at position 13 is alpha-methyl-Leu; MOD_RES (17)..(17) Lys at position 17 is chemically modified by conjugation of the epsilon-amino group of the Lys side chain with (2-[2-(2-amino-ethoxy)-ethoxy]-acetyl)2-(gamma-Glu)-CO-(CH2)16- CO2H; (20)..(20) Xaa at position 20 is Aib; (24)..(24) Xaa at positi) [Peptide 220]”, the “[hGIPR/hGLP1R] EC50 Ratio” value turned out to be 4.63.
Then “Y-Aib-EGT-αMeF(2F)-TSDYSI-αMeL-LDEK((2-[2-(2-Amino-ethoxy)-ethoxy]-acetyl)2-(γGlu)-CO—(CH2)16—CO2H)AQ-Aib-EFI-(D-Glu)-YLIEGGPSSG-NH2 (YXEGTXTSDYSIXLDEKAQXEFIXYLIEGGPSSG; Aib, αMe, D-Glu, C18 diacid lipidation, C-amide; (2)..(2) Xaa at position 2 is Aib; (6)..(6) Xaa at position 6 is alpha-methyl-Phe(2F); (13)..(13) Xaa at position 13 is alpha-methyl-Leu; MOD_RES (17)..(17) Lys at position 17 is chemically modified by conjugation of the epsilon-amino group of the Lys side chain with (2-[2-(2-amino-ethoxy)-ethoxy]-acetyl)2-(gamma-Glu)-CO-(CH2)16- CO2H; (20)..(20) Xaa at position 20 is Aib; (24)..(24) Xaa at positi) [Peptide 219]”, with 5.69; and “Y-Aib-EGT-αMeF(2F)-TSDYSI-αMeL-LDEK((2-[2-(2-Amino-ethoxy)-ethoxy]-acetyl)2-(γGlu)-CO—(CH2)16—CO2H)AQ-Aib-EFI-(D-Glu)-YLIEGGPSSGAPPPS-NH2 (YXEGTXTSDYSIXLDEKAQXEFIXYLIEGGPSSGAPPPS; Aib, αMeF(2F), αMeL, D-Glu; lipidated K; amide; (2)..(2) Xaa at position 2 is Aib; (6)..(6) Xaa at position 6 is alpha-methyl-Phe(2F); (13)..(13) Xaa at position 13 is alpha-methyl-Leu; MOD_RES (17)..(17) Lys at position 17 is chemically modified by conjugation of the epsilon-amino group of the Lys side chain with (2-[2-(2-amino-ethoxy)-ethoxy]-acetyl)2-(gamma-Glu)-CO-(CH2)16- CO2H; (20)..(20) Xaa at position 20 is Aib; (24)..(24) Xaa at positi) [Peptide 221]”, with 5.66; and “Y-Aib-EGT-αMeF(2F)-TSDYSI-αMeL-LDEK((2-[2-(2-Amino-ethoxy)-ethoxy]-acetyl)2-(γGlu)-CO—(CH2)16—CO2H)AQ-Aib-EFIEYLIEGG-NH2 (YXEGTXTSDYSIXLDEKAQXEFIEYLIEGG; Aib, αMe residues, C18 diacid lipidation, C-amide; (2)..(2) Xaa at position 2 is Aib; (6)..(6) Xaa at position 6 is alpha-methyl-Phe(2F); (13)..(13) Xaa at position 13 is alpha-methyl-Leu; MOD_RES (17)..(17) Lys at position 17 is chemically modified by conjugation of the epsilon-amino group of the Lys side chain with (2-[2-(2-amino-ethoxy)-ethoxy]-acetyl)2-(gamma-Glu)-CO-(CH2)16- CO2H; (20)..(20) Xaa at position 20 is Aib; MOD_RES (30)..(30) Gly a) [Peptide 104]”, with 2.66.
Regarding “Y-Aib-EGT-αMeF(2F)-TSDYSI-αMeL-LDEK((2-[2-(2-Amino-ethoxy)-ethoxy]-acetyl)2-(γGlu)-CO—(CH2)18—CO2H)AQ-Aib-EFI-(D-Glu)--αMeY-LIEGGPSSGAPPPS-NH2 (YXEGTXTSDYSIXLDEKAQXEFIXXLIEGGPSSGAPPPS; Aib, αMeF(2F), αMeL, D-Glu, αMeY; lipidated K; amide; (2)..(2) Xaa at position 2 is Aib; (6)..(6) Xaa at position 6 is alpha-methyl-Phe(2F); (13)..(13) Xaa at position 13 is alpha-methyl-Leu; MOD_RES (17)..(17) Lys at position 17 is chemically modified by conjugation of the epsilon-amino group of the Lys side chain with (2-[2-(2-amino-ethoxy)-ethoxy]-acetyl)2-(gamma-Glu)-CO-(CH2)18- CO2H; (20)..(20) Xaa at position 20 is Aib; (24)..(24) Xaa at positi) [Peptide 222]”, the “[hGIPR/hGLP1R] EC50 Ratio” value stood at 3.77.
“Y-Aib-EGT-αMeF(2F)-TSDYSI-αMeL-LDEK((2-[2-(2-Amino-ethoxy)-ethoxy]-acetyl)2-(γGlu)-CO—(CH2)18—CO2H)AQ-Aib-EFI-(D-Glu)-YLIEGGPSSGAPPPS-NH2 (YXEGTXTSDYSIXLDEKAQXEFIXYLIEGGPSSGAPPPS; Aib, alphaMe residues, C20 diacid lipidation, C-amide; (2)..(2) Xaa at position 2 is Aib; (6)..(6) Xaa at position 6 is alpha-MeF(2F); (13)..(13) Xaa at position 13 is alpha-MeL; MOD_RES (17)..(17) K at position 17 is chemically modified by conjugation of the epsilon-amino group of the K side chain with (2-[2-(2-amino-ethoxy)-ethoxy]-acetyl)2-(gamma-Glu)-CO-(CH2)18- CO2H; (20)..(20) Xaa at position 20 is Aib; (24)..(24) Xaa at position 24 is D-Glu; MO) [Peptide 1]”: the “[hGIPR/hGLP1R] EC50 Ratio” value amounted to 4.15.
In the case of “Y-Aib-EGT-αMeF(2F)-TSDYSI-αMeL-LDEK((2-[2-(2-Amino-ethoxy)-ethoxy]-acetyl)2-(γGlu)-CO—(CH2)18—CO2H)AQ-Aib-EFI-Aad-YLIEGGPSSGAPPPS-NH2 (YXEGTXTSDYSIXLDEKAQXEFIXYLIEGGPSSGAPPPS; Aib, Aad, αMeF(2F), αMeL; acylated lysine C20 diacid; amide; (2)..(2) Xaa at position 2 is Aib; (6)..(6) Xaa at position 6 is alpha-methyl-Phe(2F); (13)..(13) Xaa at position 13 is alpha-methyl-Leu; MOD_RES (17)..(17) Lys at position 17 is chemically modified by conjugation of the epsilon-amino group of the Lys side chain with (2-[2-(2-amino-ethoxy)-ethoxy]-acetyl)2-(gamma-Glu)-CO-(CH2)18- CO2H; (20)..(20) Xaa at position 20 is Aib; (24)..(24) Xaa at positi) [Peptide 147]”, the “[hGIPR/hGLP1R] EC50 Ratio” value is listed as 3.66.
Then “Y-Aib-EGT-αMeF(2F)-TSDYSI-αMeL-LDEK((2-[2-(2-Amino-ethoxy)-ethoxy]-acetyl)2-(γGlu)-CO—(CH2)18—CO2H)AQ-Aib-EFI-Aib-YLIEGGPSSGAPPPS-NH2 (YXEGTXTSDYSIXLDEKAQXEFIXYLIEGGPSSGAPPPS; Aib, αMeF(2F), αMeL; acylated lysine C20 diacid; amide; (2)..(2) Xaa at position 2 is Aib; (6)..(6) Xaa at position 6 is alpha-methyl-Phe(2F); (13)..(13) Xaa at position 13 is alpha-methyl-Leu; MOD_RES (17)..(17) Lys at position 17 is chemically modified by conjugation of the epsilon-amino group of the Lys side chain with (2-[2-(2-amino-ethoxy)-ethoxy]-acetyl)2-(gamma-Glu)-CO-(CH2)18- CO2H; (20)..(20) Xaa at position 20 is Aib; (24)..(24) Xaa at positi) [Peptide 152]”, with 5.31; and “Y-Aib-EGT-αMeF(2F)-TSDYSI-αMeL-LDEK((2-[2-(2-Amino-ethoxy)-ethoxy]-acetyl)2-(γGlu)-CO—(CH2)18—CO2H)AQ-Aib-EFIAYLIEGGPSSGAPPPS-NH2 (YXEGTXTSDYSIXLDEKAQXEFIAYLIEGGPSSGAPPPS; Aib, αMeF(2F), αMeL; acylated lysine C20 diacid; amide; (2)..(2) Xaa at position 2 is Aib; (6)..(6) Xaa at position 6 is alpha-methyl-Phe(2F); (13)..(13) Xaa at position 13 is alpha-methyl-Leu; MOD_RES (17)..(17) Lys at position 17 is chemically modified by conjugation of the epsilon-amino group of the Lys side chain with (2-[2-(2-amino-ethoxy)-ethoxy]-acetyl)2-(gamma-Glu)-CO-(CH2)18- CO2H; (20)..(20) Xaa at position 20 is Aib; MOD_RES (39)..(39) Ser a) [Peptide 148]”, with 3.14.
